Data as given in US20190276796A1.

Columns and labels:
murine FcγRIV (murine) [1] = assay: competition flow cytometry on CHO DG-44 cells expressing murine FcγRIV; competitor Alexa Fluor 488 labeled anti-CD70 IgG1
[2] = biological target: human FcγRIIIA V158 (human) (UniProt P08637); assay: competition flow cytometry on CHO DG-44 cells expressing human FcγRIIIA V158; competitor Alexa Fluor 488 labeled anti-CD70 IgG1
murine FcγRIV (murine) [3] = assay: competition flow cytometry on CHO DG-44 cells expressing murine FcγRIV; competitor 200 nmol/L Alexa Fluor 488 labeled anti-CD70 IgG1
[4] = biological target: human FcγRIIIA V158 (human) (UniProt P08637); assay: competition flow cytometry on CHO DG-44 cells expressing human FcγRIIIA V158; competitor 50 nmol/L Alexa Fluor 488 labeled anti-CD70 IgG1

Chain of human FcγRIIIA V158 (human) (P08637 17-254 F176V): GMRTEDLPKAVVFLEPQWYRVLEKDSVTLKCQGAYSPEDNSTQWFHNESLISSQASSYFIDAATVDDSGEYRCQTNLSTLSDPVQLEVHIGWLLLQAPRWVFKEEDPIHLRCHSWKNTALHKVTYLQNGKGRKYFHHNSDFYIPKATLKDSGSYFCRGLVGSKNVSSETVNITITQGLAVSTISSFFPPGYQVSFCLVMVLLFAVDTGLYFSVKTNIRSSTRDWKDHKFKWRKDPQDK
Chain of murine FcγRIV (murine) (A0A0B4 entry or part of it limits assumed): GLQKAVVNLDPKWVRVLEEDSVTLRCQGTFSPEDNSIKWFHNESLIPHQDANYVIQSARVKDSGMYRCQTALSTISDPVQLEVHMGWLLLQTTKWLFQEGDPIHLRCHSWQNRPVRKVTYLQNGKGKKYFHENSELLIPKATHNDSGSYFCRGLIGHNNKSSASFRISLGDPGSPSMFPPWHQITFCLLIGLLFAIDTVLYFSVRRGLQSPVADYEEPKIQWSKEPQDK

fold difference in EC50 against the parent (control) anti-CD70 antibody (murine FcγRIV (murine) [1]): 18 fold | fold difference in EC50 against the parent antibody [2]: 14 fold | EC50 (murine FcγRIV (murine) [3]): 20.8 nM | EC50 [4]: 7.99 nM
Substance: h1F6 antibody from host cells cultured in the presence of 50 µM alkynyl fucose peracetate (non-core fucosylated anti-CD70 antibody)
